The nanobody polyreactivity screen of Harvey et al. (2022)

assay: yeast display, Sf9 membrane polyspecificity reagent, FACS + sequencing; frameworks hold sequencing errors
Method in brief: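 Genes from sorted yeast were amplified by colony PCR, read by MiSeq 2 × 250 sequencing and filtered on CDR length. These cells carried a synthetic nanobody library in Saccharomyces cerevisiae BJ5465 and were sorted by FACS into low and high (top ~1%) gates on anti-HA and streptavidin fluorescence. Polyreactivity is labelled according to the gate of origin.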

Sequence	polyreactivity (PSR sort gate)
QVQLVESGGGLVQAGGSLRLSCAASGFIFDTYAMGWYRQAHGKERELVAAIRWSGGRTYYGDSVKGRFTISRDNAKNTVYLQMNSMKPEDTAVYYCNVVVRYPYAYDYWGQGTQVTVSS	high polyreactivity
QVQLVESGGGLVQAGGSLRLSCAASGFIFDWYAMGWYRQAPGKERELVAAINESGGDTYYADSVKGRFTISRDNAKNTVYLQMNSLKPEDTAVYYCAARTYHRYDYWGQGTQVTVSS	high polyreactivity
QVQLVESGGGLVQAGGSLRLSCAASGFIFDYNAMVWYRQAPGKERELVAAISISGGGTYYADSVKGRFTISRDNAKNTVYLQMNSLKPEDTAVYYCATAGRYDAYDYWGQGTQVTVSS	low polyreactivity
QVQLVESGGGLVQAGGSLRLSCAASGFIFDYYAMGWYRQAPGKERELVAAIDDSGGSTYYADSVKGRFTISRDNAKNTVYLQMNSLKPEDTAVYYCNAGVGWHSYYSNYDYWGQGTQVTVSS	low polyreactivity
QVQLVESGGGLVQAGGSLRLSCAASGFIFDYYAMGWYRQAPGKERELVAAITRDGGGTYYADSVKGRFTISRDNEKNSVYLQMNSLKPEDTAVYYCAAETYWYYRANYDYWGQGTQVTVSS	high polyreactivity
QVQLVESGGGLVQAGGSLRLSCAASGFIFDYYAMGWYRQAPGKERELVAAITSRSGSTYYADSVKGRFTISRDNAKNTVYLQMNSLKPEDTAVYYCSRRFKYGSTAWRFYYWGQGTQVTVSS	high polyreactivity
QVQLVESGGGLVQAGGSLRLSCAASGFIFDYYAMGWYRQAPGKERELVATISSSGGSTYYADSVKGRFTISRDYAKKTVYLQMNSLKPEDTAVYYCATGYTWVADSWEYYYWGQGTQVTVSS	low polyreactivity
QVQLVESGGGLVQAGGSLRLSCAASGFIFEDYAMGWYRQAPGKERELVAAIRSNDDSTYYADSVKGRFTISRDNAKNTVYLQMNSLKPEDTAVYYCAAVRYVHFGYDYWGQGTQVTVSS	high polyreactivity
QVQLVESGGGLVQAGGSLRLSCAASGFIFEGNAMGWYRQAPGKERELVAAISSSSGRTRYADSVKGRFTISRDNAKNTVYLQMNSLKPEDTAVYYCAARRQSTRPGFYYWGQGTQVTVSS	high polyreactivity
QVQLVESGGGLVQAGGSLRLSCAASGFIFEPYAMGWYRQAPGKERELVAAISSGGSTYADSVKGRFTISRDNAKNTVYLQMNSLKPEDTAVYYCAVRGYWGQGTQVTVSS	low polyreactivity
QVQLVESGGGLVQAGGSLRLSCAASGFIFEPYAMGWYRQAPGTERELVAAISATDDSTYYADSVKGRFTISRDNAKNTVYLQMNSLKPEDTAVYYCNATYYIIALPYDYWGQGTQVTVSS	low polyreactivity
QVQLVESGGGLVQAGGSLRLSCAASGFIFERYTMGWYRQAPGKERELVAAISDSGGSTYYADSVKGRFTISRDNAKNTVYLQMNSLKPEDTAVYYCAAKFRNYRPSKYYYWGQGTQVTVSS	high polyreactivity
QVQLVESGGGLVQAGGSLRLSCAASGFIFESNAMGWYIQAPGKERELVATITNGDRTYYADSVNGRFTISRDNAKNTVYLQMNSLKPEDTAVYYCNADFRAREVFLFDSWGQGTQVTVSS	low polyreactivity
QVQLVESGGGLVQAGGSLRLSCAASGFIFFANAMGWYRQAPGKESELVADITWSGGTTYYADSVKGRFTISRDNAKNTVYLQMNSLKPEDTAVYYCAARGWASTWYYYWGQGTQVTVSS	high polyreactivity
QVQLVESGGGLVQAGGSLRLSCAASGFIFFFYAMGWYRQAPGKERELVASISWNGGSTYYADSVKGRFTISRDNAKNTVYLQMNSLKPEYTAVYYCAVYSFRERVKAYRIYDYWGQGTHVTVSS	low polyreactivity
QVQLVESGGGLVQAGGSLRLSCAASGFIFFRNAMGWYRQAPGKERELVAAISRSGGITYYADSVKGRFTISRDNAKNTVYLQMNSLKPEDTAVYYCNAAKASREQWTSFDYWGQGTQVTVSS	high polyreactivity
QVQLVESGGGLVQAGGSLRLSCAASGFIFFRYAMGWYRQAPGKERELVATITSSGRTNYADSVKGRFTISRDNAKNTVYLQMNSLKPEDTAVYYCAAQRTGARRYRYDSWGQGTQVTVSS	high polyreactivity
QVQLVESGGGLVQAGGSLRLSCAASGFIFFRYSMGWYRQAPGKERELVATINLGGGSTYADSVKGRFTISRDNAKNTVYLQMTSLKPEDTAVYYSAADVANSIYDYWGQGTLVTVSS	low polyreactivity
QVQLVESGGGLVQAGGSLRLSCAASGFIFFYYAMGWYRQAPGKERELVAAITRGGSTNYADSVKGRFTISRDNAKNTVYLQMNRLKPEDTAVYYCNKQYGRRHYWGDDYYWGQGTQVTVSS	low polyreactivity
QVQLVESGGGLVQAGGSLRLSCAASGFIFGDYAMGWYRQAPGKERELVAAISRSGGRTYYADSVKGRFTISRDNAKNTVYLQMNSLKPEDTAVYYCAKSSLNIYEYWGQGTQVTVSS	high polyreactivity
QVQLVESGGGLVQAGGSLRLSCAASGFIFGDYAMGWYRQAPGTERELVAAIFSGGSTYYADSVKGRFTISRDNAKNTVYLQMNSLKPEDTAVYYCAARFARYDWSMYYWGQGTQVTVSS	low polyreactivity
QVQLVESGGGLVQAGGSLRLSCAASGFIFGDYVMGRYRQAPGKEREVVAAITRRGGRTNYADSVKGRFTISRDNAKNTVFLQMNSLIPEDNAVFYCNAQSGVVADDYWGQGSQVTVSS	high polyreactivity
QVQLVESGGGLVQAGGSLRLSCAASGFIFGEYAMGWYRQAPGKERELVAAITWSGGSTSYADSVKGRFTSSRDNAKNTVYLQMNSLKPEDTAVYYCSARWHVYWGGFYYWGQVTQVTVSS	high polyreactivity
QVQLVESGGGLVQAGGSLRLSCAASGFIFGFYAMGWYRQAPGKERELVAAITSDGGTYYADSVKGRFTISRDNAKNTVYLQMNSLKPEDTAVYYCAARPPYTDSSPGERTYDYWGQGTQVTVSS	low polyreactivity
QVQLVESGGGLVQAGGSLRLSCAASGFIFGFYAMGWYRQAPWKERELVAAITSDGGTYYADSVKGRFTISRDNAKNTVYLQMNSLKPEDTAVYYCAADVLYEVFSWYVGYDYWGQGTQVTVSS	low polyreactivity
QVQLVESGGGLVQAGGSLRLSCAASGFIFGGNAMGWYRQAPGKERELVAAISSGGRTYYADSVKGRFTISRDNAKNTVYLQMNSLKPEDTAVYYCNAAEQKYSIYYAFDTGPYDYWGQGTQVTVSS	low polyreactivity
QVQLVESGGGLVQAGGSLRLSCAASGFIFGGYALGWYRQAPGKERELVAAISWSGDNTYYADSVKGRFTISRDNAKNTVYLQMNSLKPEDTAVYYCAADSYGQEYDYWGQGTQVTVSS	low polyreactivity
QVQLVESGGGLVQAGGSLRLSCAASGFIFGGYAMGWYRQAPGKERELVAAITRGGSTDYADSVKGRFTISRDNAKNTVYLQMNSLKPEDTAVYYCAKKTPGWGKFDYWGQGTQVTVSS	low polyreactivity
QVQLVESGGGLVQAGGSLRLSCAASGFIFGHNTMGWYRPAPGKERELVAAIDGGGGTSYADSVKGRFTISRDNAKNTVYLQMNSLKPEDTAVYYCAAYVAKGPLEYYYHYPYDYWGQGTQVTVSS	low polyreactivity
QVQLVESGGGLVQAGGSLRLSCAASGFIFGHYAMGWYRQAPGKERELVAAITRGGRTNYADSVKGRFTISRDNAKNTVYLQMNSLKPEDTAVYYCNALGKALYRSRFYYWGQGTQVTVSS	high polyreactivity
